According to PMC3510022 (Molecular Biology of the Cell, 2012):

B2: His7-MBP-Vti1 cytoplasmic domain (domain or fragment)
chain: SSLLISYESDFKTTLEQAKASLAEAPSQPLSQRNTTLKHVEQQQDELFDLLDQMDVEVNNSIGDASERATYKAKLREWKKTIQSDIKRPLQSLVDSGDRDRLFGDLNASNIDDDQRQQLLSNHAILQKSGDRLKDASRIANETEGIGSQIMMDLRSQRETLENARQTLFQADSYVDKSIKTLKTMTRRLVANK
B3: Vam3 cytoplasmic domain (residues 1–264) fused C-terminally to GST (domain or fragment)
chain: MSFFDIEAQSSKGNSQQEPQFSTNQKTKELSNLIETFAEQSRVLEKECTKIGSKRDSKELRYKIETELIPNCTSVRDKIESNILIHQNGKLSADFKNLKTKYQSLQQSYNQRKSLFPLKTPISPGTSKERKDIHPRTEAVRQDPESSYISIKVNEQSPLLHNEGQHQLQLQEEQEQQQQGLSQEELDFQTIIHQERSQQIGRIHTAVQEVNAIFHQLGSLVKEQGEQVTTIDENISHLHDNMQNANKQLTRADQHQRDRNKCGK
B4: His6-Nyv1 cytoplasmic domain (domain or fragment)
chain: MKRFNVSYVEVIKNGETISSCFQPFQKNENYGTITSANEQITPVIFHNLIMDMVLPKVVPIKGNKVTKMSMNLIDGFDCFYSTDDHDPKTVYVCFTLVDMPKILPIRILSGLQEYESNATNELLSSHVGQILDSFHEELVEYRNQTLNSSGNGQSSNGNGQNTISDIGDATEDQIKDVIQIMNDNIDKFLERQERVSLLVDKTSQLNSSSNKFRRKAVNIKEIMWWQKVKN
B6: GST-Sed5 SNARE domain (residues 170–319) (domain or fragment)
chain: ANKDRWQKLTTDTGHAPADDQTQSNHAADLTTYNNSNPFMTSLLDESSEKNNNSSNQGELSFPQNDSQLMLMEEGQLSNNVYLQERNRAVETIESTIQEVGNLFQQLASMVQEQGEVIQRIDANVDDIDLNISGAQRELLKYFDRIKSNR

Key:
Assay in all cases: pull-down
purified Vps33 = target: T1, purified Vps33 (S. cerevisiae, UniProt P20795 1-691)
T1 sequence: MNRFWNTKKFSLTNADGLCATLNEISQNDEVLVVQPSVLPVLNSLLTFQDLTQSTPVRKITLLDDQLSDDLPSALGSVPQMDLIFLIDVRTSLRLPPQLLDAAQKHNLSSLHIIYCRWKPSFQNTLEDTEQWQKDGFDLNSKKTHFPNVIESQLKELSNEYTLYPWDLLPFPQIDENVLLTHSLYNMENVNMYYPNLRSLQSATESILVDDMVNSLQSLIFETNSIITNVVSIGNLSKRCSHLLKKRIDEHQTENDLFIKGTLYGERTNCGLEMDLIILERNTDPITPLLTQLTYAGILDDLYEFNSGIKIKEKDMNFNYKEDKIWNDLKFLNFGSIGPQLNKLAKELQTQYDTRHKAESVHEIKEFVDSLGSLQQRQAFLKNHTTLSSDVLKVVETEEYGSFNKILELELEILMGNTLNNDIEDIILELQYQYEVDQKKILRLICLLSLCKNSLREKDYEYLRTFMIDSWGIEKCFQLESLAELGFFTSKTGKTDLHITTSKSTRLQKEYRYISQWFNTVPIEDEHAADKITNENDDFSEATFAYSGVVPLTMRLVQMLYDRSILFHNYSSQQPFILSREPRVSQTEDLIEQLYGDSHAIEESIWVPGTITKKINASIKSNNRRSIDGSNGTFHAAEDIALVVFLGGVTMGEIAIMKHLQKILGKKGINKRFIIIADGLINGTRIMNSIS

[1] = target: B3
His6-Vam7 = target: T2, His6-Vam7 (S. cerevisiae, UniProt P32912 1-316)
T2 sequence: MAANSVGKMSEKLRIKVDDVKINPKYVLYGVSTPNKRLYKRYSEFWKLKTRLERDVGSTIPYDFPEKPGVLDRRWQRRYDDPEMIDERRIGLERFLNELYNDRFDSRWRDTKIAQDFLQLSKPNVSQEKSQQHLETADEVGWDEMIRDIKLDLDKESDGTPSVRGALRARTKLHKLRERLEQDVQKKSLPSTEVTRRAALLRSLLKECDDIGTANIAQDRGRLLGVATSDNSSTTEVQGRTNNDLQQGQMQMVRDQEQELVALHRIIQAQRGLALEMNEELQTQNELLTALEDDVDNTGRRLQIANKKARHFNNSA

[2] = target: B6
[3] = target: T3, His6-Sec22 cytoplasmic domain (UniProt P22214 1-192)
T3 sequence: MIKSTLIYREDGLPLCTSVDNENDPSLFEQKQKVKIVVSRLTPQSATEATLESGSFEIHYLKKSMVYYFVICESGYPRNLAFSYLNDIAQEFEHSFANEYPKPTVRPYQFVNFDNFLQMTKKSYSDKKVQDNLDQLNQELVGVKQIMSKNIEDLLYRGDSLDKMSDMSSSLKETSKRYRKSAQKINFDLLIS

[4] = target: B4
[5] = target: B2

B1: minimal SNARE complex lacking the N-terminal domains of Vam3 and Vam7 (complex)
chain 1: SQEELDFQTIIHQERSQQIGRIHTAVQEVNAIFHQLGSLVKEQGEQVTTIDENISHLHDNMQNANKQLTRADQHQRDRNKCGK
chain 2: PSTEVTRRAALLRSLLKECDDIGTANIAQDRGRLLGVATSDNSSTTEVQGRTNNDLQQGQMQMVRDQEQELVALHRIIQAQRGLALEMNEELQTQNELLTALEDDVDNTGRRLQIANKKARHFNNSA
chain 3: SSLLISYESDFKTTLEQAKASLAEAPSQPLSQRNTTLKHVEQQQDELFDLLDQMDVEVNNSIGDASERATYKAKLREWKKTIQSDIKRPLQSLVDSGDRDRLFGDLNASNIDDDQRQQLLSNHAILQKSGDRLKDASRIANETEGIGSQIMMDLRSQRETLENARQTLFQADSYVDKSIKTLKTMTRRLVANK
chain 4: MKRFNVSYVEVIKNGETISSCFQPFQKNENYGTITSANEQITPVIFHNLIMDMVLPKVVPIKGNKVTKMSMNLIDGFDCFYSTDDHDPKTVYVCFTLVDMPKILPIRILSGLQEYESNATNELLSSHVGQILDSFHEELVEYRNQTLNSSGNGQSSNGNGQNTISDIGDATEDQIKDVIQIMNDNIDKFLERQERVSLLVDKTSQLNSSSNKFRRKAVNIKEIMWWQKVKN
Purified Vps33
  Kd: 2800 nM

## B2
[1]
  binding result: binds

## B3
His6-Vam7
  binding result: binds

## B4
[1]
  binding result: binds

B5: His6-Bet1 cytoplasmic domain (domain or fragment)
chain: MSSRFAGGNAYQRDTGRTQLFGPADGSNSLDDNVSSALGSTDKLDYSQSTLASLESQSEEQMGAMGQRIKALKSLSLKMGDEIRGSNQTIDQLGDTFHNTSVKLKRTFGNMMEMARR
[2]
  binding result: binds

## B6
[3]
  binding result: binds

B7: Vam3 SNARE domain (residues 182–264) fused C-terminally to GST (domain or fragment)
chain: SQEELDFQTIIHQERSQQIGRIHTAVQEVNAIFHQLGSLVKEQGEQVTTIDENISHLHDNMQNANKQLTRADQHQRDRNKCGK
[4]
  binding result: binds
[5]
  binding result: binds
